Data on twelve molecules can be found in patent US20230056252A1 (Gilead, published 2023).

The IC50 is the concentration that inhibits the measured activity by half. A high value points to lower potency. The Kd is the concentration at which binding is half-saturated. High values mean lower affinity, low ones higher affinity. What is called koff is the first-order rate constant of dissociation. A word on the kon: it is a measure of how fast the partners come together. A high value points to fast association.

Assay [1] concerns the target T1, CD3 expressed on cell-surface of primary human T cells (human, UniProt P07766 23-207; P04234 22-171).
T1 construct: also called cell-surface CD3; human CD3
The assay can be described thus: flow cytometry competition vs murine SP34-AF488 on human T cells, n = 2. Background: A flow cytometer gives signals particle by particle.
Protocol: (§1) Binding of humanized SP34 Fab variants to CD3 expressed on cell-surface of primary human T cells was evaluated in a flow cytometry-based competition assay.

The target of assay [2] is T1, CD3 expressed on cell-surface of …. The assay can be described thus: flow cytometry competition vs murine SP34-AF488 on human T cells, n = 1.
Protocol: as §1
Assay [3] addresses T2, biotinylated CD3 epsilon:delta heterodimer protein (Amsbio AMS.CDD-H52WO) (Homo sapiens (Human), UniProt P07766 23-126; P04234 22-105).
T2 construct: also called CD3 heterodimer
The assay can be described thus: BLI (Octet), CD3 on SA sensor, bispecific analyte. (Biolayer interferometry detects binding as a change in optical thickness at a sensor tip.)
Protocol: The CD3 binding kinetics of the purified huSP34 Fabs were determined using OctetRed384 (Pall ForteBio, CA) biolayer interferometry (BLI). […] Streptavidin (SA) coated biosensors tips (Pall ForteBio, CA) were used to capture biotinylated CD3 epsilon: delta heterodimer and typical immobilization levels captured on the SA sensors were 1 nm which approximately translates to 300 ng/ml of captured protein. For kinetic measurements biosensors were first pre-wetted with assay buffer for 10 minutes to remove protective sucrose coating followed by the recommended regeneration conditions for standardization of the biosensor surface for the experiment. In order to load the biosensors with antigen, 300 ng/ml of biotinylated CD3 epsilon: delta heterodimer protein (Amsbio AMS.CDD-H52WO) was immobilized on the SA sensor for 900 seconds. The CD3 loaded biosensors were then blocked with 20 ug/ml biocytin (sigma) for 200 seconds and then dipped into assay buffer containing wells for 200 seconds to remove any non-specific protein or unbound CD3 heterodimer.
CD3 loaded and biocytin blocked biosensors were then transferred into fresh assay buffer for 200 seconds to collect a baseline read. Kinetic measurements for anti-CD3 Fab and bispecific antibody binding were performed by dipping the CD3-coated biosensors into wells containing multiple concentrations of Fab or Ab (0-300 nM) for 100 seconds followed by a 300 second dissociation time by transferring the biosensors into assay buffer containing wells. The CD3 loaded sensors were then regenerated for the next kinetic measurement. Biosensors were generated by removing bound Fabs or Ab from immobilized CD3 on SA biosensors. Regeneration conditions used consisted of 3 cycles of 5 seconds of dipping the biosensors in Regeneration Buffer (10 mM Glycine HCl pH 1.5) followed by Assay Buffer (10 mM sodium phosphate pH 7.4, 140 mM Sodium Chloride, 0.005% Tween20 with 0.2% BSA).

B1: huSP34.2.4 Fab-HF (Fab, V domains shown)
VH: EVQLVESGGGLVQPGGSLRLSCAASGFTFSTYAMNWVRQAPGKGLEWVGRIRSKYNNYATYYAASVKGRFTISRDDSKNSLYLQMNSLKTEDTAMYYCVRHGNFGNSYVSWFAVWGQGTLVTVSS
VL: QAVVTQEPSLTVSPGGTVTLTCGSSTGAVTTSHYANWVQQKPGQAPRGLIGGTSKRAPWTPARFSGSLLGGKAALTLSGAQPEDEAEYYCALWYSALWVFGGGTKLTVL
Take B1: the half-inhibitory concentration (IC50) in assay [1] and in assay [2] was > 20 µg/mL throughout.

B2: huSP34.5.6 Fab-HF (Fab, V domains shown)
VH: EVQLVESGGGLVQPGGSLRLSCAASGFTFSTYAMNWVRQAPGKGLEWVGRIRSKYNNYATYYADSVKGRFTISRDNSKNTLYLQMNSLRAEDTAVYYCVRHGNFGHSYVSWFAVWGQGTLVTVSS
VL: QAVVTQPPSLTVSPGGTVTLTCGSSTGAVTTGHYANWVQQKPGQAPRGLIGGTSNRAPGVPARFSGSLSGGKAALTISGAQPEDEAEYYCALWYSARWVFGGGTKLTVL
B2: the IC50 in assay [1] and in assay [2] was > 20 µg/mL in each case.

B3: huSP34.5.4 Fab-HF (Fab, V domains shown)
VH: EVQLVESGGGLVQPGGSLRLSCAASGFTFSTYAMNWVRQAPGKGLEWVGRIRSKYNNYATYYADSVKGRFTISRDNSKNTLYLQMNSLRAEDTAVYYCVRHGNFGHSYVSWFAVWGQGTLVTVSS
VL: QAVVTQEPSLTVSPGGTVTLTCGSSTGAVTTSHYANWVQQKPGQAPRGLIGGTSKRAPWTPARFSGSLLGGKAALTLSGAQPEDEAEYYCALWYSALWVFGGGTKLTVL
As for B3, the half-inhibitory concentration (IC50) in assay [1] and in assay [2] was > 20 µg/mL each time.

B4: huSP34.5.5 Fab-HF (Fab, V domains shown)
VH: EVQLVESGGGLVQPGGSLRLSCAASGFTFSTYAMNWVRQAPGKGLEWVGRIRSKYNNYATYYADSVKGRFTISRDNSKNTLYLQMNSLRAEDTAVYYCVRHGNFGHSYVSWFAVWGQGTLVTVSS
VL: QAVVTQEPSLTVSPGGTVTLTCGSSTGAVTTGHYANWVQQKPGQAPRGLIGGTSNRAPWTPARFSGSLLGGKAALTLSGAQPEDEAEYYCALWYSARWVFGGGTKLTVL
As to B4, the concentration for half-maximal inhibition (IC50) in assay [1] and in assay [2] was > 20 µg/mL in each case.

B5: huSP34.4.5 Fab-HF (Fab, V domains shown)
VH: EVQLVESGGGLVQPGGSLRLSCAASGFTFSTYAMNWVRQAPGKGLEWVGRIRSKYNNYATYYAASVKGRFTISRDDSKNSLYLQMNSLRTEDTAVYYCVRHGNFGHSYVSWFAVWGQGTLVTVSS
VL: QAVVTQEPSLTVSPGGTVTLTCGSSTGAVTTGHYANWVQQKPGQAPRGLIGGTSNRAPWTPARFSGSLLGGKAALTLSGAQPEDEAEYYCALWYSARWVFGGGTKLTVL
As for B5, the IC50 in assay [1] and in assay [2] was > 20 µg/mL in each case.

B6: huSP34.2.5 Fab-HF (Fab, V domains shown)
VH: EVQLVESGGGLVQPGGSLRLSCAASGFTFSTYAMNWVRQAPGKGLEWVGRIRSKYNNYATYYAASVKGRFTISRDDSKNSLYLQMNSLKTEDTAMYYCVRHGNFGNSYVSWFAVWGQGTLVTVSS
VL: QAVVTQEPSLTVSPGGTVTLTCGSSTGAVTTGHYANWVQQKPGQAPRGLIGGTSNRAPWTPARFSGSLLGGKAALTLSGAQPEDEAEYYCALWYSARWVFGGGTKLTVL
For B6, the IC50 in assay [1] and in assay [2] was > 20 µg/mL throughout.

B7: huSP34.5.1 Fab-HF (Fab, V domains shown)
VH: EVQLVESGGGLVQPGGSLRLSCAASGFTFSTYAMNWVRQAPGKGLEWVGRIRSKYNNYATYYADSVKGRFTISRDNSKNTLYLQMNSLRAEDTAVYYCVRHGNFGHSYVSWFAVWGQGTLVTVSS
VL: QAVVTQEPSLTVSPGGTVTLTCRSSTGAVTTSNYANWVQQKPGQAPRGLIGGTNKRAPWTPARFSGSLIGDKAALTLSGAQPEDEAEYYCALWYSNLWVFGGGTKLTVL
Consider B7, for which the half-inhibitory concentration (IC50) in assay [1] and in assay [2] was > 20 µg/mL each time.

B8: huSP34.5.2 Fab-HF (Fab, V domains shown)
VH: EVQLVESGGGLVQPGGSLRLSCAASGFTFSTYAMNWVRQAPGKGLEWVGRIRSKYNNYATYYADSVKGRFTISRDNSKNTLYLQMNSLRAEDTAVYYCVRHGNFGHSYVSWFAVWGQGTLVTVSS
VL: QAVVTQEPSLTVSPGGTVTLTCGSSTGAVTTSNYANWVQQKPGQAPRGLIGGTSNRAPWTPARFSGSLLGGKAALTLSGAQPEDEAEYYCALWYSNLWVFGGGTKLTVL
As for B8, the half-maximal inhibitory concentration (IC50) in assay [1] and in assay [2] was > 20 µg/mL each time.

B9: huSP34.4.4 Fab-HF (Fab, V domains shown)
VH: EVQLVESGGGLVQPGGSLRLSCAASGFTFSTYAMNWVRQAPGKGLEWVGRIRSKYNNYATYYAASVKGRFTISRDDSKNSLYLQMNSLRTEDTAVYYCVRHGNFGHSYVSWFAVWGQGTLVTVSS
VL: QAVVTQEPSLTVSPGGTVTLTCGSSTGAVTTSHYANWVQQKPGQAPRGLIGGTSKRAPWTPARFSGSLLGGKAALTLSGAQPEDEAEYYCALWYSALWVFGGGTKLTVL
As for B9, the IC50 in assay [1] and in assay [2] was > 20 µg/mL in each case.

B10: hPGT121.66 AAS + W/huSP34.27.8 scFv AAS + SAV + R (bispecific antibody, human IgG1, lambda, L234A L235A)
chain: EVQLVESGGGLVQPGGSLSLSCAASGFTFSTYAMNWVRQAPGKGLEWVGRIRSKYNNYAEYYAASVKGRFTISRDDSKNTLYLQMNSLRTEDTAVYYCVRHGNFGHSYVSWFAYWGQGTLVTVSSGGGGSGGGGSGGGGSGGGGSQAVVTQEPSLTVSPGGTVTLTCGSSTGAVTTGHYANWVQQKPGQAPRGLIGGTNKRAPGVPARFSGSLLGGKAALTISGAQPEDEAEYYCALWYSNRWVFGGGTKLTVLEPKSSDKTHTCPPCPAPEAAGGPSVFLFPPKPKDTLMISRTPEVTCVVVDVSHEDPEVKFNWYVDGVEVHNAKTKPREEQYNSTYRVVSVLTVLHQDWLNGKEYKCKVSNKALPASIEKTISKAKGQPREPQVYTLPPSREEMTKNQVSLSCAVKGFYPSDIAVEWESNGQPENNYKTTPPVLDSDGSFFLVSKLTVDKSRWQQGNVFSCSVMHEALHNRYTQKSLSLSPGK
heavy: QMQLQESGPGLVKPSETLSLTCSVSGASISDSYWSWIRRSPGKGLEWIGYVHKSGDTNYNPSLKSRVHLSLDTSKNQVSLSLTGVTAADSGKYYCARTLHGRRIYGIVAFNEWFTYFYMDVWGTGTQVTVSSASTKGPSVFPLAPSSKSTSGGTAALGCLVKDYFPEPVTVSWNSGALTSGVHTFPAVLQSSGLYSLSSVVTVPSSSLGTQTYICNVNHKPSNTKVDKKVEPKSCDKTHTCPPCPAPEAAGGPSVFLFPPKPKDTLMISRTPEVTCVVVDVSHEDPEVKFNWYVDGVEVHNAKTKPREEQYNSTYRVVSVLTVLHQDWLNGKEYKCKVSNKALPASIEKTISKAKGQPREPQVYTLPPSREEMTKNQVSLWCLVKGFYPSDIAVEWESNGQPENNYKTTPPVLDSDGSFFLYSKLTVDKSRWQQGNVFSCSVMHEALHNHYTQKSLSLSPGK
light: not shown
notes: also called 270; bispecific 270
In assay [3], B10 showed a dissociation constant (Kd) of 13.2 nM, a koff of 0.001 s⁻¹ and an association rate constant (kon) of 76300 M⁻¹ s⁻¹.

B11: hPGT121.66 AAS + W/huSP34.28.8 scFv AAS + SAV + R (bispecific antibody, human IgG1, lambda, L234A L235A)
chain: EVQLVESGGGLVQPGGSLSLSCAASGFTFSTYAMNWVRQAPGKGLEWVGRIRSKYNNYATYYAASVKSRFTISRDDSKNTLYLQMNSLRTEDTAVYYCVRHGNFGHSYVSWFAYWGQGTLVTVSSGGGGSGGGGSGGGGSGGGGSQAVVTQEPSLTVSPGGTVTLTCGSSTGAVTTGHYANWVQQKPGQAPRGLIGGTNKRAPGVPARFSGSLLGGKAALTISGAQPEDEAEYYCALWYSNRWVFGGGTKLTVLEPKSSDKTHTCPPCPAPEAAGGPSVFLFPPKPKDTLMISRTPEVTCVVVDVSHEDPEVKFNWYVDGVEVHNAKTKPREEQYNSTYRVVSVLTVLHQDWLNGKEYKCKVSNKALPASIEKTISKAKGQPREPQVYTLPPSREEMTKNQVSLSCAVKGFYPSDIAVEWESNGQPENNYKTTPPVLDSDGSFFLVSKLTVDKSRWQQGNVFSCSVMHEALHNRYTQKSLSLSPGK
heavy: QMQLQESGPGLVKPSETLSLTCSVSGASISDSYWSWIRRSPGKGLEWIGYVHKSGDTNYNPSLKSRVHLSLDTSKNQVSLSLTGVTAADSGKYYCARTLHGRRIYGIVAFNEWFTYFYMDVWGTGTQVTVSSASTKGPSVFPLAPSSKSTSGGTAALGCLVKDYFPEPVTVSWNSGALTSGVHTFPAVLQSSGLYSLSSVVTVPSSSLGTQTYICNVNHKPSNTKVDKKVEPKSCDKTHTCPPCPAPEAAGGPSVFLFPPKPKDTLMISRTPEVTCVVVDVSHEDPEVKFNWYVDGVEVHNAKTKPREEQYNSTYRVVSVLTVLHQDWLNGKEYKCKVSNKALPASIEKTISKAKGQPREPQVYTLPPSREEMTKNQVSLWCLVKGFYPSDIAVEWESNGQPENNYKTTPPVLDSDGSFFLYSKLTVDKSRWQQGNVFSCSVMHEALHNHYTQKSLSLSPGK
light: not shown
notes: also called 271; bispecific 271
In the case of B11, in assay [3], the Kd turned out to be 15.8 nM, the koff amounted to 0.00134 s⁻¹ and the kon came to 84600 M⁻¹ s⁻¹.

B12: hPGT121.66 AAS + W/huSP34.33.8 scFv AAS + SAV + R (bispecific antibody, human IgG1, lambda, L234A L235A)
chain: EVQLVESGGGLVQPGGSLRLSCAASGFTFSTYAMNWVRQAPGKGLEWVGRIRSKYNNYATYYAASVKSRFTISRDDSKNTLYLEMNSLRTEDTAVYYCVRHGNFGHSYVSWFAYWGQGTLVTVSSGGGGSGGGGSGGGGSGGGGSQAVVTQEPSLTVSPGGTVTLTCGSSTGAVTTGHYANWVQQKPGQAPRGLIGGTNKRAPGVPARFSGSLLGGKAALTISGAQPEDEAEYYCALWYSNRWVFGGGTKLTVLEPKSSDKTHTCPPCPAPEAAGGPSVFLFPPKPKDTLMISRTPEVTCVVVDVSHEDPEVKFNWYVDGVEVHNAKTKPREEQYNSTYRVVSVLTVLHQDWLNGKEYKCKVSNKALPASIEKTISKAKGQPREPQVYTLPPSREEMTKNQVSLSCAVKGFYPSDIAVEWESNGQPENNYKTTPPVLDSDGSFFLVSKLTVDKSRWQQGNVFSCSVMHEALHNRYTQKSLSLSPGK
heavy: QMQLQESGPGLVKPSETLSLTCSVSGASISDSYWSWIRRSPGKGLEWIGYVHKSGDTNYNPSLKSRVHLSLDTSKNQVSLSLTGVTAADSGKYYCARTLHGRRIYGIVAFNEWFTYFYMDVWGTGTQVTVSSASTKGPSVFPLAPSSKSTSGGTAALGCLVKDYFPEPVTVSWNSGALTSGVHTFPAVLQSSGLYSLSSVVTVPSSSLGTQTYICNVNHKPSNTKVDKKVEPKSCDKTHTCPPCPAPEAAGGPSVFLFPPKPKDTLMISRTPEVTCVVVDVSHEDPEVKFNWYVDGVEVHNAKTKPREEQYNSTYRVVSVLTVLHQDWLNGKEYKCKVSNKALPASIEKTISKAKGQPREPQVYTLPPSREEMTKNQVSLWCLVKGFYPSDIAVEWESNGQPENNYKTTPPVLDSDGSFFLYSKLTVDKSRWQQGNVFSCSVMHEALHNHYTQKSLSLSPGK
light: not shown
In assay [3], B12 registered a dissociation constant Kd of 15.3 nM, a koff of 0.00118 s⁻¹ and a kon of 77400 M⁻¹ s⁻¹.
